The labels stand for the following.
B1: CEACAM binding protein of Fusobacterium (CbpF) from F. nucleatum ATCC25586, wild type, detergent-solubilised (natural protein)
chain: SAAPVIKAGTATDSTEAGVDNVANGVKSSAFGYDNKAIEKESSAFGTGNRATGEFSSAFGFHNIASKIHSSAFGSNNAADGVNSSAFGFKNTVSGFNSSAFGSQYQVTGNFSGAFGMGEFNGQYQYKNEGNNSYMIGNKNKIASGSDDNFILGNNVHIGGGINNSVALGNNSTVSASNTVSVGSSTLKRKIVNVGDGAISANSSDAVTGRQLYSGNGIDTAAWQNKLNVTRKNDYKDANDIDVNKWKAKLGVGSGGGGGAPVDAYTKSEADNKFANKTDLNDYTKKDDYKDANGIDVDKWKAKLGTGAGTADIENLRNEVNEKIDDVKDEVRTVGSLSAALAGLHPMQYDPKAPVQVMAALGHYRDKQSVAVGASYYFNDRFMMSTGIALSGEKRTKTMANVGFTLKLGKGSGVTYDETPQYVVQNEVKRLTVENQELKERVRNLEEKLNMLLKNK
notes: Cloned in pASK-IBA2C behind an N-terminal E. coli OmpA signal peptide; Homotrimer; also called CbpF WT; CbpF wt; source: E. coli BL21 C43, extracted from membranes with lauroylsarcosine, purified (StrepTactin, SEC)
B2: CEACAM binding protein of Fusobacterium (CbpF), F. nucleatum ATCC25586, wild type (natural protein)
chain: SAAPVIKAGTATDSTEAGVDNVANGVKSSAFGYDNKAIEKESSAFGTGNRATGEFSSAFGFHNIASKIHSSAFGSNNAADGVNSSAFGFKNTVSGFNSSAFGSQYQVTGNFSGAFGMGEFNGQYQYKNEGNNSYMIGNKNKIASGSDDNFILGNNVHIGGGINNSVALGNNSTVSASNTVSVGSSTLKRKIVNVGDGAISANSSDAVTGRQLYSGNGIDTAAWQNKLNVTRKNDYKDANDIDVNKWKAKLGVGSGGGGGAPVDAYTKSEADNKFANKTDLNDYTKKDDYKDANGIDVDKWKAKLGTGAGTADIENLRNEVNEKIDDVKDEVRTVGSLSAALAGLHPMQYDPKAPVQVMAALGHYRDKQSVAVGASYYFNDRFMMSTGIALSGEKRTKTMANVGFTLKLGKGSGVTYDETPQYVVQNEVKRLTVENQELKERVRNLEEKLNMLLKNK
modifications: AlexaFluor 647 NHS-ester conjugate (cell binding and competition assays only)
notes: CbpF (FN1499) of Fusobacterium nucleatum ATCC25586, codon-optimized gene; mature protein after signal peptide cleavage, residues S24-K479; numbers count on the precursor with its own signal peptide; Cloned in frame with an N-terminal E. coli OmpA signal peptide (export signal; In detergent for SPR and the SEC test, in DMPC/MSP1D1 nanodiscs for cryo-EM and the cell assays; also called CbpF wt; …)
B4: CEACAM1 extracellular domain (residues 35–428), C-terminal hexahistidine tag (domain or fragment, human, UniProt P13688 35-428, looked up)
chain: QLTTESMPFNVAEGKEVLLLVHNLPQQLFGYSWYKGERVDGNRQIVGYAIGTQQATPGPANSGRETIYPNASLLIQNVTQNDTGFYTLQVIKSDLVNEEATGQFHVYPELPKPSISSNNSNPVEDKDAVAFTCEPETQDTTYLWWINNQSLPVSPRLQLSNGNRTLTLLSVTRNDTGPYECEIQNPVSANRSDPVTLNVTYGPDTPTISPSDTYYRPGANLSLSCYAASNPPAQYSWLINGTFQQSTQELFIPNITVNNSGSYTCHANNSVTGCNRTTVKTIIVTELSPVVAKPQIKASKTTVTGDKDSVNLTCSTNDTGISIRWFFKNQSLPSSERMKLSQGNTTLSINPVKREDAGTYWCEVFNPISKNQSDPIMLNVNYNALPQENGLSPG
modifications: glycosylated (N-acetylglucosamines modelled on the IgV-like and IgC2-like A1 domains)
notes: human carcinoembryonic antigen-related cell adhesion molecule 1 (CEACAM1), extracellular domain, residues 35-428 of UniProt P13688; also called CEACAM1/ECD; CEACAM1-ECD; source: bought: ACRO Biosystems (Cat. No. CE1-H5220), produced in HEK293 cells; not shown: His6, C-terminal, kept

Series [1] concerns the molecule itself. In words: SDS-PAGE (SDS- and heat-resistant oligomer); elution fractions of membrane-extracted CbpF from StrepTactin resin; monomer at 50 kDa, trimer at 150 kDa.
Series [2] deals with the molecule itself. Description: SDS-PAGE (SDS- and heat-resistant oligomer); purified CbpF, in detergent and after reconstitution in DMPC/MSP1D1 nanodiscs; band above 150 kDa.
Series [3] addresses T1, CEACAM1-eGFP fusion protein on transfected HEK293T cells (human, UniProt P13688 35-526).
T1 construct: human CEACAM1 expressed from pcDNA3.1 as a GFP fusion; also called GFP-tagged CEACAM1; CEACAM1-GFP; source: HEK293T, transfected (pcDNA3.1, CMV promotor), on cells
T1 sequence (looked up): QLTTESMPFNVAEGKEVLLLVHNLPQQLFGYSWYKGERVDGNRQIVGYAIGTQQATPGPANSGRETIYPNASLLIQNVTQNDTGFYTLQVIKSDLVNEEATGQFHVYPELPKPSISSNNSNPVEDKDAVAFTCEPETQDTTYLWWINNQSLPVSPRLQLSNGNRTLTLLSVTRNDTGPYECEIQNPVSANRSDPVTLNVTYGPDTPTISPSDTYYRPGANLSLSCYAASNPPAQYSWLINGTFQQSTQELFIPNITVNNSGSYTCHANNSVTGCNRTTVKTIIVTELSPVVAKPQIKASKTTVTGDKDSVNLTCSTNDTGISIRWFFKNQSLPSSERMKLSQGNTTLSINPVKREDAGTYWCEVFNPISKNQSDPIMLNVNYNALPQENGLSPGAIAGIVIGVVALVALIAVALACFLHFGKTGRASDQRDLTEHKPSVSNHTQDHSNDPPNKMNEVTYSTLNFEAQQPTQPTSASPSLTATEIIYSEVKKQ
Description: confocal fluorescence microscopy of labelled protein on cells; 1 µM AlexaFluor 647-labelled CbpF nanodiscs on HEK293T cells transfected with CEACAM1-GFP, 2 h at 37 °C, compared with empty nanodiscs; integrated fluorescence colocalizing with GFP or with the membrane stain. To be noted: one partner purified.

Series [4] concerns the target B4. In words: cryo-EM structure; 4.6 µM nanodisc-embedded CbpF (trimer) incubated with 14 µM CEACAM1/ECD for 60 min at 23 °C, excess CEACAM1 removed by SEC; single particle analysis, C3 symmetry. Conditions: both partners purified.
In series [5] the target is B1. In words: SPR; CEACAM1-ECD-His6 captured (about 35 RU) on anti-His antibody on a CM5 chip, Biacore T200; CbpF injected at 11.5-1480 nM (WT) or 15.6-1000 nM (WT and variants); 25 mM MOPS-NaOH, 150 mM NaCl, 1 % P8POE, pH 7.0, 25 °C; 240 s association, 600 s dissociation; 1:1 Langmuir global fit. To be noted: both partners purified.
For series [6], the target named is B2. In words: competition of cell binding (confocal fluorescence microscopy); labelled CbpF nanodiscs preincubated with 1 or 2 µM purified CEACAM1-ECD for 30 min at 25 °C before incubation with cells. Conditions: both partners purified.
The target in series [7] is B2. In words: SPR; Biacore T200; CEACAM1-ECD-His6 captured on an anti-His antibody on a CM5 chip (~35 RU); CbpF injected, 11.5 to 1,480 nM (WT) or 15.6 to 1,000 nM (WT and variants); 25 mM MOPS-NaOH, 150 mM NaCl, 1 % P8POE, pH 7.0, 25 °C; global fit with a 1:1 Langmuir or a heterogeneous ligand model. Conditions: both partners purified.
Series [8] addresses B2. In words: SPR; same sensorgrams as a4, steady-state signals of the binding curves evaluated. Conditions: both partners purified. On the technique in general: Surface plasmon resonance follows binding to a sensor surface in real time, without labels.

The source of these data is paper PMC12012533, “Structural basis for immune cell binding of Fusobacterium nucleatum via the trimeric autotransporter adhesin CbpF” (Proceedings of the National Academy of Sciences of the …, 2025).

Several values for one entry are separate records, joined by “and”; a condition that tells them apart may be missing. Equal values may be shown once.

Consider B1, for which the stoichiometry N (commonly the number of molecules, sites or subunits per partner or assembly) in series [1] is 3.

For B2, the “stoichiometry N” value in series [2] stood at 3; in series [4], 1 CEACAM1 per CbpF protomer. Besides, the “fold increase of the mean fluorescence signal over empty nanodiscs (colocalizing with cells)” value in series [3] is 9.3 fold. Also, the “fold increase of the mean fluorescence signal over nanodiscs without CbpF (colocalizing with CEACAM1-GFP)” value in series [3] is approximately 460 fold.

B3: CEACAM1 extracellular domain (residues 35-428), C-terminal hexahistidine tag (domain or fragment, human, UniProt P13688 35-428, looked up)
chain: QLTTESMPFNVAEGKEVLLLVHNLPQQLFGYSWYKGERVDGNRQIVGYAIGTQQATPGPANSGRETIYPNASLLIQNVTQNDTGFYTLQVIKSDLVNEEATGQFHVYPELPKPSISSNNSNPVEDKDAVAFTCEPETQDTTYLWWINNQSLPVSPRLQLSNGNRTLTLLSVTRNDTGPYECEIQNPVSANRSDPVTLNVTYGPDTPTISPSDTYYRPGANLSLSCYAASNPPAQYSWLINGTFQQSTQELFIPNITVNNSGSYTCHANNSVTGCNRTTVKTIIVTELSPVVAKPQIKASKTTVTGDKDSVNLTCSTNDTGISIRWFFKNQSLPSSERMKLSQGNTTLSINPVKREDAGTYWCEVFNPISKNQSDPIMLNVNYNALPQENGLSPG
modifications: glycosylated
notes: carcinoembryonic antigen-related cell adhesion molecule 1 (CEACAM1), human, extracellular domain, residues 35-428; also called CEACAM1-ECD; CEACAM1/ECD; source: bought: ACRO Biosystems, Cat. No. CE1-H5220, produced in HEK293 cells; not shown: His6, C-terminal, kept
B3: in series [5], the Kd (usually the free concentration of one partner at which half of the binding sites on the other are occupied at equilibrium, for simple one-to-one binding) is 6.16 nM and 6.29 nM; the koff (as a rule, the rate constant with which the complex falls apart) was 0.000501 s⁻¹ and 0.000844 s⁻¹; the association rate constant (kon) (as a rule, the second-order rate constant of association) amounted to 134000 M⁻¹ s⁻¹.

On to B4, for which, in series [6], the “fold decrease of the CbpF signal on cells after preincubation” value is approximately 11 fold. Besides, in series [7], binding was put at a Kd of 6.2 nM, the off-rate constant (koff) amounted to 0.00051 s⁻¹ and the on-rate constant (kon) turned out to be 81300 M⁻¹ s⁻¹. The molecule also yielded a Kd in series [8] of 75 ± 14 nM.
